Reference: patent US10064928B2, “Peptides and combination of peptides for use in immunotherapy against CLL and other cancers” (IMMATICS BIOTECHNOLOGIES GMBH, priority 2015, dated 2018)

target: HLA-A*02:01 (Homo sapiens, UniProt P04439, D140Y/D185E/D98H/E176V/E277Q/G131W/G231S/I119V/I121R/I166T/I218V/L300P/L318F/N151K/N90K/P208A/P217A/Q86G/Q94H/R138H/R169H/T345S); assay: MHC binding assay (UV-ligand exchange, beta2m ELISA); details: binding of HLA-class I restricted peptides to HLA-A*02:01, β2m ELISA
From the text: Candidate peptides for T cell based therapies according to the present invention were further tested for their MHC binding capacity (affinity). The individual peptide-MHC complexes were produced by UV-ligand exchange, where a UV-sensitive peptide is cleaved upon UV-irradiation, and exchanged with the peptide of interest as analyzed. Only peptide candidates that can effectively bind and stabilize the peptide-receptive MHC molecules prevent dissociation of the MHC complexes. To determine the yield of the exchange reaction, an ELISA was performed based on the detection of the light chain (β2m) of stabilized MHC complexes. The assay was performed as generally described in Rodenko et al. (Rodenko et al., 2006).
96 well MAXISorp plates (NUNC) were coated over night with 2 ug/ml streptavidin in PBS at room temperature, washed 4× and blocked for 1 h at 37° C. in 2% BSA containing blocking buffer. Refolded HLA-A*02:01/MLA-001 monomers served as standards, covering the range of 15-500 ng/ml. Peptide-MHC monomers of the UV-exchange reaction were diluted 100 fold in blocking buffer. Samples were incubated for 1 h at 37° C., washed four times, incubated with 2 ug/ml HRP conjugated anti-β2m for 1 h at 37° C., washed again and detected with TMB solution that is stopped with […]. Absorption was measured at 450 nm. Candidate peptides that show a high exchange yield (preferably higher than 50%, most preferred higher than 75%) are generally preferred for a generation and production of antibodies or fragments thereof, and/or T cell receptors or fragments thereof, as they show sufficient avidity to the MHC molecules and prevent dissociation of the MHC complexes.

| Substance | Peptide Exchange (MHC class I binding score, peptide exchange yield) |
| --- | --- |
| 68 (GLDQQFAGLDL; listed as Homo sapiens) [compound 68] | “+” (≥10% = +) |
| 70 (FVPDTPVGV; listed as Homo sapiens) [compound 70] | “+++” (≥50 = +++) |
| 71 (GLKHDIARV; listed as Homo sapiens) [compound 71] | “+++” (≥50 = +++) |
| 72 (GLLDAGKMYV; listed as Homo sapiens) [compound 72] | “+++” (≥50 = +++) |
| 73 (GLLEVISALQL; listed as Homo sapiens) [compound 73] | “+++” (≥50 = +++) |
| 74 (GLLRASFLL; listed as Homo sapiens) [compound 74] | “++” (≥20% = ++) |
| 75 (GLSIFAQDLRL; listed as Homo sapiens) [compound 75] | “++” (≥20% = ++) |
| 76 (GLLRIIPYL; listed as Homo sapiens) [compound 76] | “+++” (≥50 = +++) |
| 78 (GLPSFLTEV; listed as Homo sapiens) [compound 78] | “+++” (≥50 = +++) |
| 79 (GLQAKIQEA; listed as Homo sapiens) [compound 79] | “+++” (≥50 = +++) |
| 80 (VLIEDELEEL; listed as Homo sapiens) [compound 80] | “++” (≥20% = ++) |
| 82 (GLQSGVDIGV; listed as Homo sapiens) [compound 82] | “+++” (≥50 = +++) |
| 83 (GQGEVLVYV; listed as Homo sapiens) [compound 83] | “+++” (≥50 = +++) |
| 84 (GVMDVNTAL; listed as Homo sapiens) [compound 84] | “++” (≥20% = ++) |
| 85 (HLMLHTAAL; listed as Homo sapiens) [compound 85] | “++++” (≥75% = ++++) |
| 87 (HQIEAVDGEEL; listed as Homo sapiens) [compound 87] | “++” (≥20% = ++) |
| 88 (ILDEIGADVQA; listed as Homo sapiens) [compound 88] | “+++” (≥50 = +++) |
| 89 (ILDFGTFQL; listed as Homo sapiens) [compound 89] | “+++” (≥50 = +++) |
| 90 (VIADLGLIRV; listed as Homo sapiens) [compound 90] | “+++” (≥50 = +++) |
| 91 (ILDLNTYNV; listed as Homo sapiens) [compound 91] | “+++” (≥50 = +++) |
| 92 (ILEPLNPLL; listed as Homo sapiens) [compound 92] | “+++” (≥50 = +++) |

| Substance | Peptide Exchange (MHC class I binding score, peptide exchange yield) |
| --- | --- |
| 93 (ILFNTQINI; listed as Homo sapiens) [compound 93] | “+++” (≥50 = +++) |
| 94 (ILFPLRFTL; listed as Homo sapiens) [compound 94] | “+++” (≥50 = +++) |
| 95 (ILGYMAHEHKV; listed as Homo sapiens) [compound 95] | “++” (≥20% = ++) |
| 97 (LLFATQITL; listed as Homo sapiens) [compound 97] | “++” (≥20% = ++) |
| 98 (SLIKYFLFV; listed as Homo sapiens) [compound 98] | “+” (≥10% = +) |
| 99 (ILIFHSVAL; listed as Homo sapiens) [compound 99] | “+++” (≥50 = +++) |
| 103 (KLGGTPAPA; listed as Homo sapiens) [compound 103] | “++” (≥20% = ++) |
| 104 (KLILLDTPLFL; listed as Homo sapiens) [compound 104] | “+++” (≥50 = +++) |
| 105 (KLMNDIADI; listed as Homo sapiens) [compound 105] | “++” (≥20% = ++) |
| 106 (FMASHLDYL; listed as Homo sapiens) [compound 106] | “+++” (≥50 = +++) |
| 107 (ILYNLYDLL; listed as Homo sapiens) [compound 107] | “+++” (≥50 = +++) |
| 108 (VIYTLIHYI; listed as Homo sapiens) [compound 108] | “+++” (≥50 = +++) |
| 109 (KLWEGLTELV; listed as Homo sapiens) [compound 109] | “+++” (≥50 = +++) |
| 110 (LLFDHLEPMEL; listed as Homo sapiens) [compound 110] | “+++” (≥50 = +++) |
| 111 (KLWNVAAPLYL; listed as Homo sapiens) [compound 111] | “+++” (≥50 = +++) |
| 113 (KVPAEEVLVAV; listed as Homo sapiens) [compound 113] | “+++” (≥50 = +++) |
| 115 (LLFDKLYLL; listed as Homo sapiens) [compound 115] | “+++” (≥50 = +++) |
| 116 (LLIGATMQV; listed as Homo sapiens) [compound 116] | “+++” (≥50 = +++) |
| 117 (LLILENILL; listed as Homo sapiens) [compound 117] | “+++” (≥50 = +++) |
| 118 (RLLILENILL; listed as Homo sapiens) [compound 118] | “+++” (≥50 = +++) |
| 119 (VLPAEFFEV; listed as Homo sapiens) [compound 119] | “+++” (≥50 = +++) |

| Substance | Peptide Exchange (MHC class I binding score, peptide exchange yield) |
| --- | --- |
| 120 (AIDAALTSV; listed as Homo sapiens) [compound 120] | “+++” (≥50 = +++) |
| 121 (RLYEITIEV; listed as Homo sapiens) [compound 121] | “++++” (≥75% = ++++) |
| 122 (LLIPVVPGV; listed as Homo sapiens) [compound 122] | “+++” (≥50 = +++) |
| 123 (LLLAEAELLTL; listed as Homo sapiens) [compound 123] | “++” (≥20% = ++) |
| 124 (LLLEETEKQAV; listed as Homo sapiens) [compound 124] | “+++” (≥50 = +++) |
| 125 (LLLEIGEVGKLFV; listed as Homo sapiens) [compound 125] | “+++” (≥50 = +++) |
| 126 (LLPEGGITAI; listed as Homo sapiens) [compound 126] | “+++” (≥50 = +++) |
| 127 (LLPTAPTTV; listed as Homo sapiens) [compound 127] | “+++” (≥50 = +++) |
| 128 (LLSEEEYHL; listed as Homo sapiens) [compound 128] | “+++” (≥50 = +++) |
| 130 (LLVLIPVYL; listed as Homo sapiens) [compound 130] | “+” (≥10% = +) |
| 131 (LQALEVLKI; listed as Homo sapiens) [compound 131] | “+” (≥10% = +) |
| 132 (LVYEAIIMV; listed as Homo sapiens) [compound 132] | “+++” (≥50 = +++) |
| 133 (YLLSGDISEA; listed as Homo sapiens) [compound 133] | “+++” (≥50 = +++) |
| 134 (MLLEHGITLV; listed as Homo sapiens) [compound 134] | “++++” (≥75% = ++++) |
| 135 (MTAGFSTIAGSV; listed as Homo sapiens) [compound 135] | “+” (≥10% = +) |
| 136 (NLDKLWTLV; listed as Homo sapiens) [compound 136] | “++” (≥20% = ++) |
| 137 (NLIKTVIKL; listed as Homo sapiens) [compound 137] | “+++” (≥50 = +++) |
| 138 (NLLDIDAPVTV; listed as Homo sapiens) [compound 138] | “+++” (≥50 = +++) |
| 139 (NLTDVVEKL; listed as Homo sapiens) [compound 139] | “+++” (≥50 = +++) |
